Article PMC3834829, “A signature motif mediating selective interactions of BCL11A with the NR2E/F subfamily of orphan nuclear receptors” (Nucleic Acids Research, 2013)

B1: AAD-COUP-TFII-LBD-(144–414) [not stated] / LexA-COUP-TFII-LBD-(144–414) [not stated] (parent)
chain 1: MRREAVQRGRMPPTQPTHGQFALTNGDPLNCHSYLSGYISLLLRAEPYPTSRFGSQCMQPNNIMGIENICELAARMLFSAVEWARNIPFFPDLQITDQVALLRLTWSELFVLNAAQCSMPLHVAPLLAAAGLHASPMSADRVVAFMDHIRIFQEQVEKLKALHVDSAEYSCLKAIVLFTSDACGLSDVAHVESLQEKSQCALEEYVRSQYPNQPTRFGKLLLRLPSLRTVSSSVIEQLFFVRLVGKTPIETLIRDMLLSGSSFNWPYMAIQ
chain 2: B1 chain 1

Variants of: B1
Experiment: yeast two-hybrid
Conditions: with LexA-COUP-TFII-LBD-(144–414);; read off a plot

| Variant | response |
| --- | --- |
| chain 1 MRREAVQRGRMPPTQPTHGQFALTNGDPLNCHSYLSGYISLLLRAEPYPTSRFGSQCMQPNNIMGIENICELAARMLFSAVEWAANIPFFPDLQITDQVALLRLTWSELFVLNAAQCSMPLHVAPLLAAAGLHASPMSADRVVAFMDHIRIFQEQVEKLKALHVDSAEYSCLKAIVLFTSDACGLSDVAHVESLQEKSQCALEEYVRSQYPNQPTRFGKLLLRLPSLRTVSSSVIEQLFFVRLVGKTPIETLIRDMLLSGSSFNWPYMAIQ [chain 1 R85A] | 390 nmol/mg/min |
| chain 1 MRREAVQRGRMPPTQPTHGQFALTNGDPLNCHSYLSGYISLLLRAEPYPTSRFGSQCMQPNNIMGIENICELAARMLFSAVEWARNIPFFPDLQITDQAALLRLTWSELFVLNAAQCSMPLHVAPLLAAAGLHASPMSADRVVAFMDHIRIFQEQVEKLKALHVDSAEYSCLKAIVLFTSDACGLSDVAHVESLQEKSQCALEEYVRSQYPNQPTRFGKLLLRLPSLRTVSSSVIEQLFFVRLVGKTPIETLIRDMLLSGSSFNWPYMAIQ [chain 1 V99A] | 460 nmol/mg/min |
| chain 1 MRREAVQRGRMPPTQPTHGQFALTNGDPLNCHSYLSGYISLLLRAEPYPTSRFGSQCMQPNNIMGIENICELAARMLFSAVEWARNIPFFPDLQITDQVALLALTWSELFVLNAAQCSMPLHVAPLLAAAGLHASPMSADRVVAFMDHIRIFQEQVEKLKALHVDSAEYSCLKAIVLFTSDACGLSDVAHVESLQEKSQCALEEYVRSQYPNQPTRFGKLLLRLPSLRTVSSSVIEQLFFVRLVGKTPIETLIRDMLLSGSSFNWPYMAIQ [chain 1 R103A] | 470 nmol/mg/min |
| chain 1 MRREAVQRGRMPPTQPTHGQFALTNGDPLNCHSYLSGYISLLLRAEPYPTSRFGSQCMQPNNIMGIENICELAARMLFSAVEWARNIPFFPDLQATDQVALLRLTWSELFVLNAAQCSMPLHVAPLLAAAGLHASPMSADRVVAFMDHIRIFQEQVEKLKALHVDSAEYSCLKAIVLFTSDACGLSDVAHVESLQEKSQCALEEYVRSQYPNQPTRFGKLLLRLPSLRTVSSSVIEQLFFVRLVGKTPIETLIRDMLLSGSSFNWPYMAIQ [chain 1 I95A] | 500 nmol/mg/min |
| chain 1 MRREAVQRGRMPPTQPTHGQFALTNGDPLNCHSYLSGYISLLLRAEPYPTSRFGSQCMQPNNIMGIENICELAARMLASAVEWARNIPFFPDLQITDQVALLRLTWSELFVLNAAQCSMPLHVAPLLAAAGLHASPMSADRVVAFMDHIRIFQEQVEKLKALHVDSAEYSCLKAIVLFTSDACGLSDVAHVESLQEKSQCALEEYVRSQYPNQPTRFGKLLLRLPSLRTVSSSVIEQLFFVRLVGKTPIETLIRDMLLSGSSFNWPYMAIQ [chain 1 F78A] | 410 nmol/mg/min |
